Experimental findings from publication PMC7226325 are described below.

For orientation: stoichiometry N means a count of units in the complex or per binding partner.

The assay addresses recombinant Tepary bean lectin (rTBL-1) (Phaseolus acutifolius (Tepary bean)). Briefly: SEC; ENrich SEC 650 column, calibrated with gel filtration standard; 200 uL of protein at 10 mg/mL; 20 mM MES pH 6.5, 100 mM NaCl. (In general: In gel filtration, larger molecules generally elute earlier.)

As to “recombinant Tepary bean lectin (rTBL-1) (natural protein)”, the stoichiometry N came to 4.
